Values joined by “and” are separate entries in the source; they are usually repeats but may differ in a detail not shown here. Identical values can stand only once.
B1: σ2^L domain of Mycobacterium tuberculosis σ^L (domain or fragment)
chain: MARVSGAAAAEAALMRALYDEHAAVLWRYALRLTGDAAQAEDVVQETLLRAWQHPEVIGDTARPARAWLFTVARNMIIDERRSARFRNVV
B2: Anti-σ domain (ASD) of Mycobacterium tuberculosis RslA (residues 1–108), Zn2+-bound (domain or fragment)
chain: MTMPLRGLGPPDDTGVREVSTGDDHHYAMWDAAYVLGALSAADRREFEAHLAGCPECRGAVTELCGVPALLSQLDRDEVAAISESAPTVVASGLSPELLPSLLAAVHR
notes: Anti-sigma-L factor RslA, Mycobacterium tuberculosis, cytosolic anti-sigma domain, residues 1-108; also called holo-RslA; Mtb RslA
B3: Apo-RslA: anti-σ domain of Mycobacterium tuberculosis RslA (residues 1–108), Zn2+-free, oxidized (domain or fragment)
chain: MTMPLRGLGPPDDTGVREVSTGDDHHYAMWDAAYVLGALSAADRREFEAHLAGCPECRGAVTELCGVPALLSQLDRDEVAAISESAPTVVASGLSPELLPSLLAAVHR
modifications: disulfide bond between Cys54 and Cys57 in oxidized apo-RslA; Zn2+ removed
notes: For SPR the Zn2+ was removed on the chip with 10 mM H2O2 and 2 mM TPEN; in solution with 1 mM H2O2 and 5 mM TPEN; also called Zn^2+-free RslA; oxidized RslA

What was measured:
[1] = target: B2; assay: SPR; BIACORE 2000; RslA immobilised on a CM5 chip at 12 ng/mm2; σ^L, σ2^L, σ4^L as analytes; 20 mM Tris-HCl pH 7.8, 200 mM NaCl, 50 mM imidazole, 1 mM DTT (holo-RslA); details: both partners purified
[2] = target: the molecule itself; assay: SEC + other: dynamic light scattering

Binder | Kd [1] [nM] | stoichiometry N [2]
B1 | ~2000 | –
B2 | – | 2 and 4
B3 | – | 2 and 4
